The record followed here is the RNAGym collection of RNA variant scans (doi:10.7554/elife.90254).

B1: LINE1-mini (parent)
chain: GGCAGAGCUCAACACAGCGUGGCAAAGUGGCUGUGGCUAGACUGCC

Variants of B1 are the subject of this data set. The data set is described as follows: self-cleavage, relative activity (ratio to wild type); higher = more cleavage; in vitro, sequencing; the parent is a self-cleaving ribozyme.
Take GGCAGAGCUCAACACUGAGUGGCAAAGUGGCUGUGGCUAGACUGCC [A16U C18A]: the self-cleavage was 0.05.
For GGCAGAGCUCAACACUGUGUGGCAAAGUGGCUGUGGCUAGACUGCC [A16U C18U] the value was 0.07.
As for GGCAGAGCUCAACACUGGGUGGCAAAGUGGCUGUGGCUAGACUGCC [A16U C18G], the figure is 0.05.
For the variant GGCAGAGCUCAACACUGCGUGGCAAAGUGGCUGUGGAUAGACUGCC [A16U C37A], the self-cleavage amounted to 0.11.
For GGCAGAGCUCAACACUGCGUGGCAAAGUGGCUGUGGUUAGACUGCC [A16U C37U] the value was 0.06; for GGCAGAGCUCAACACUGCGUGGCAAAGUGGCUGUGGGUAGACUGCC [A16U C37G], 0.07.
As for GGCAGAGCUCAACACUGCGUGGCAAAGUGGCUAUGGCUAGACUGCC [A16U G33A], the figure is 0.07.
As for GGCAGAGCUCAACACUGCGUGGCAAAGUGGCUGUGGCUAGACUGUC [A16U C45U], the figure is 0.11; as for GGCAGAGCUCAACACUGCGUGGCAAAGUGGCUGUGGCUAGACUGGC [A16U C45G], 0.13.
With GGCAGAGCUCAACACUGCGUGGCAAAGUGGCUGUGGCUAGACUGAC [A16U C45A], the self-cleavage is 0.1.
For GGCAGAGCUCAACACUGCGUGACAAAGUGGCUGUGGCUAGACUGCC [A16U G22A] the value was 0.42; for GGCAGAGCUCAACACUGCGUGUCAAAGUGGCUGUGGCUAGACUGCC [A16U G22U], 0.42.
As for GGCAGAGCUCAACACUGCGUGCCAAAGUGGCUGUGGCUAGACUGCC [A16U G22C], the figure is 0.28.
For GGCAGAGCUCAACACUCCGUGGCAAAGUGGCUGUGGCUAGACUGCC [A16U G17C], the self-cleavage worked out at 0.2.
In the case of GGCAGAGCUCAACACUACGUGGCAAAGUGGCUGUGGCUAGACUGCC [A16U G17A], the self-cleavage was 0.06.
With GGCAGAGCUCAACACUUCGUGGCAAAGUGGCUGUGGCUAGACUGCC [A16U G17U], the self-cleavage was 0.03.
For GGCAGAGCUCAACACUGCGUGGCAAAGUGGCUGUGGCUAGAUUGCC [A16U C42U] the value was 0.09; for GGCAGAGCUCAACACUGCGUGGCAAAGUGGCUGUGGCUAGAAUGCC [A16U C42A], 0.05; for GGCAGAGCUCAACACUGCGUGGCAAAGUGGCUGUGGCUAGAGUGCC [A16U C42G], 0.07.
Consider GGCAGAGCUCAACACUGCGUGGCAAAGUGGCUGUGGCUAGCCUGCC [A16U A41C], for which the self-cleavage was determined as 0.05.
Take GGCAGAGCUCAACACUGCGUGGCAAAGUGGCUGUGGCUAGUCUGCC [A16U A41U]: the self-cleavage worked out at 0.07.
For GGCAGAGCUCAACACUGCGUGGCAAAGUGGCUGUGGCUAGGCUGCC [A16U A41G] the value was 0.07.
For the variant GGCAGAGCUCAACACUGCAUGGCAAAGUGGCUGUGGCUAGACUGCC [A16U G19A], the self-cleavage is 0.19.
Turning to GGCAGAGCUCAACACUGCUUGGCAAAGUGGCUGUGGCUAGACUGCC [A16U G19U], the self-cleavage was 0.2.
As for GGCAGAGCUCAACACUGCCUGGCAAAGUGGCUGUGGCUAGACUGCC [A16U G19C], the figure is 0.6.
For GGCAGAGCUCAACACUGCGUGGCAAAGUGGCUGUGGCUUGACUGCC [A16U A39U] the value was 0.08.
As for GGCAGAGCUCAACACUGCGUGGCAAAGUGGCUGUGGCUGGACUGCC [A16U A39G], the figure is 0.07; as for GGCAGAGCUCAACACUGCGUGGCAAAGUGGCUGUGGCUCGACUGCC [A16U A39C], 0.08; as for GGCAGAGCUCAACACUGCGUGGCUAAGUGGCUGUGGCUAGACUGCC [A16U A24U], 0.11.
Take GGCAGAGCUCAACACUGCGUGGCAAAGUGGCUGUGGCUAGACUGCG [A16U C46G]: the self-cleavage was 0.08.
For GGCAGAGCUCAACACUGCGUGGCAAAGUGGCUGUGGCUAGACUGCA [A16U C46A] the value was 0.09; for GGCAGAGCUCAACACUGCGUGGCAAAGUGGCUGUGGCUAGACUGCU [A16U C46U], 0.1.
In the case of GGCAGAGCUCAACACUGCGUGGGAAAGUGGCUGUGGCUAGACUGCC [A16U C23G], the self-cleavage came out at 0.1.
For GGCAGAGCUCAACACUGCGUGGUAAAGUGGCUGUGGCUAGACUGCC [A16U C23U] the value was 0.23.
For GGCAGAGCUCAACACUGCGUGGAAAAGUGGCUGUGGCUAGACUGCC [A16U C23A] the value was 0.19; for GGCAGAGCUCAACACUGCGUGGCACAGUGGCUGUGGCUAGACUGCC [A16U A25C], 0.03.
For GGCAGAGCUCAACACUGCGUGGCAGAGUGGCUGUGGCUAGACUGCC [A16U A25G] the value was 0.07; for GGCAGAGCUCAACACUGCGUGGCAUAGUGGCUGUGGCUAGACUGCC [A16U A25U], 0.1; for GGCAGAGCUCAACACUGCGUGGCAAAGUCGCUGUGGCUAGACUGCC [A16U G29C], 0.53.
For the variant GGCAGAGCUCAACACUGCGUGGCAAAGUAGCUGUGGCUAGACUGCC [A16U G29A], the self-cleavage was 0.38.
As for GGCAGAGCUCAACACUGCGUGGCAAAGUUGCUGUGGCUAGACUGCC [A16U G29U], the figure is 0.39; as for GGCAGAGCUCAACACUGCGUCGCAAAGUGGCUGUGGCUAGACUGCC [A16U G21C], 0.27; as for GGCAGAGCUCAACACUGCGUAGCAAAGUGGCUGUGGCUAGACUGCC [A16U G21A], 0.23.
For GGCAGAGCUCAACACUGCGUUGCAAAGUGGCUGUGGCUAGACUGCC [A16U G21U] the value was 0.19; for GGCAGAGCUCAACACUGCGUGGCAAAGUGGUUGUGGCUAGACUGCC [A16U C31U], 0.03.
For GGCAGAGCUCAACACUGCGUGGCAAAGUGGGUGUGGCUAGACUGCC [A16U C31G] the value was 0.04; for GGCAGAGCUCAACACUGCGUGGCAAAGUGGAUGUGGCUAGACUGCC [A16U C31A], 0.21.
Take GGCAGAGCUCAACACUGCGUGGCAAAGUGUCUGUGGCUAGACUGCC [A16U G30U]: the self-cleavage worked out at 0.06.
As for GGCAGAGCUCAACACUGCGUGGCAAAGUGACUGUGGCUAGACUGCC [A16U G30A], the figure is 0.1.
As for GGCAGAGCUCAACACUGCGUGGCAAAGUGCCUGUGGCUAGACUGCC [A16U G30C], the self-cleavage is 0.45.
As for GGCAGAGCUCAACACUGCGUGGCAACGUGGCUGUGGCUAGACUGCC [A16U A26C], the figure is 0.06.
As for GGCAGAGCUCAACACUGCGUGGCAAUGUGGCUGUGGCUAGACUGCC [A16U A26U], the figure is 0.13.
For GGCAGAGCUCAACACUGCGUGGCAAGGUGGCUGUGGCUAGACUGCC [A16U A26G] the value was 0.06; for GGCAGAGCUCAACACUGCGUGGCAAAUUGGCUGUGGCUAGACUGCC [A16U G27U], 0.13.
Regarding GGCAGAGCUCAACACUGCGUGGCAAAAUGGCUGUGGCUAGACUGCC [A16U G27A], the self-cleavage was 0.59.
As for GGCAGAGCUCAACACUGCGUGGCAAACUGGCUGUGGCUAGACUGCC [A16U G27C], the figure is 0.16.
